Results as given in publication doi:10.1101/2020.01.18.911131.

Target: taxol-stabilized microtubules (porcine brain tubulin) (porcine) (UniProt P02550)
Assay: co-sedimentation

Row | Substance | Kd
1 | chick Fmn2 FH2FSI (1148th-1587th aa) (from UniProt A0A1B2VWD2 1148-1587) (domain or fragment) | 1.6 µM
2 | chick Fmn2 FH2_ΔFSI (1148th-1563rd aa) (from UniProt A0A1B2VWD2 1148-1563) (domain or fragment) | 18.6 µM
